Data published in publication PMC3231483.

How the values were obtained:
thrombin [1] = biological target: T1, thrombin (human, UniProt P00734;P00734 328-363;364-622); assay: guided mode resonance sensor (kinetic, Langmuir 1:1); 0.75 uM thrombin; ka 1.83e5 M-1s-1, kd 0.30e-1 s-1; Aptamer immobilized from 1 uM in PBS; assay buffer, salt and temperature not given in the material (Tris-HCl pH 7.4 and sodium phosphate listed as reagents); re
thrombin [2] = biological target: T1, thrombin; assay: guided mode resonance sensor (kinetic, Langmuir 1:1); 1.50 uM thrombin; ka 0.20e5 M-1s-1, kd 1.33e-1 s-1; Aptamer immobilized from 1 uM in PBS; assay buffer, salt and temperature not given in the material (Tris-HCl pH 7.4 and sodium phosphate listed as reagents); re
thrombin [3] = biological target: T1, thrombin; assay: guided mode resonance sensor (kinetic, Langmuir 1:1); 1.00 uM thrombin; ka 0.18e5 M-1s-1, kd 1.54e-1 s-1; Aptamer immobilized from 1 uM in PBS; assay buffer, salt and temperature not given in the material (Tris-HCl pH 7.4 and sodium phosphate listed as reagents); re
thrombin [4] = biological target: T1, thrombin; assay: guided mode resonance sensor (kinetic, Langmuir 1:1); 0.50 uM thrombin; ka 1.52e5 M-1s-1, kd 0.61e-1 s-1; Aptamer immobilized from 1 uM in PBS; assay buffer, salt and temperature not given in the material (Tris-HCl pH 7.4 and sodium phosphate listed as reagents); re
thrombin [5] = biological target: T1, thrombin; assay: guided mode resonance sensor (Langmuir linear regression); 0.25-1 uM thrombin; order of magnitude only; Aptamer immobilized from 1 uM in PBS; assay buffer, salt and temperature not given in the material (Tris-HCl pH 7.4 and sodium phosphate listed as reagents); re
thrombin [6] = biological target: T1, thrombin; assay: guided mode resonance sensor (kinetic, Langmuir 1:1); 0.25 uM thrombin; ka 2.06e5 M-1s-1, kd 1.05e-1 s-1; Aptamer immobilized from 1 uM in PBS; assay buffer, salt and temperature not given in the material (Tris-HCl pH 7.4 and sodium phosphate listed as reagents); re

## AGTCCGTGGTAGGGCAGGTTGGGGTGACT (structured_DNA, 5' NH2) [29-mer thrombin aptamer (TBA)]
Thrombin [1]
  Ka: 6.18 10^6 M^-1
Thrombin [2]
  Ka: 0.15 10^6 M^-1
Thrombin [3]
  Ka: 0.12 10^6 M^-1
Thrombin [4]
  Ka: 2.5 10^6 M^-1
Thrombin [5]
  Ka: ~1 10^6 M^-1
Thrombin [6]
  Ka: 1.95 10^6 M^-1
